In the supplement of paper PMC7877785:
± gives the uncertainty stated by the source.

Assay: self-splicing fitness, log relative to wild type (ln ratio); higher = more splicing; Tetrahymena group I intron in knt gene, E. coli kanamycin selection, DiMSum; sequences stand for … in CUCUCU…GGAGGGAAAAGUUAUCAGGCAUGCACCUGGUAGCUAGUCUUUAAACCAAUAGAUUGCAUCGGUUUAAAAGGCAAGACCGUCAAAUUGCGGGAAAGGGGUCAACAGCCGUUCAGUACCAAGUCUCAGGGGAAACUUUGAGAUGGCCUUGCAAAGGGUAUGGUAAUAAGCUGACGGACAUGGUCCUAACCACGCAGCCAAGUCCUAAGUCAACAGAUCUUCUGUUGAUAUGGAUGCAGUUCACAGACUAAAUGUCGGUCGGGGAAGAUGUAUUCUUCUCAUAAGAUAUAGUCGGACCUCUCCUUAAUGGGAGCUAGCGGAUGAAGUGAUGCAACACUGGAGCCGCUGGGAACUAAUUUGUAUGCGAAAGUAUAUUGAUUAGUUUUGGAGUACUCGUGGUCG
Procedure, shortened: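 DiMSum derived fitness as the error-weighted combination of fold changes across replicates, kanamycin versus no kanamycin, normalised to wild type. E. coli BL21(DE3) held the library, which randomised all eight P1ex-region intron nucleotides within the knt kanamycin-resistance gene on pET-22b(+). Six replicate transformations grew overnight at 37°C or 30°C on LB agar with or without 25 μg/mL kanamycin, also containing 100 μg/mL carbenicillin, 50 μM IPTG and 0.2% rhamnose, and pooled colonies were amplicon-sequenced on an Illumina HiSeq 2500.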

Sequence | self-splicing fitness (ln) (30 °C) | self-splicing fitness (ln) (37 °C)
AAAUAGCAAUAUUACGUCGC | -2.54 ± 0.15 | -2.54 ± 0.28
CUACAGCAAUAUUACGCCUG | -1.43 ± 0.1 | -0.209 ± 0.097
AUGAAGCAAUAUUACGGGGA | -2.4 ± 0.15 | -1.31 ± 0.17
GUCUAGCAAUAUUACGGCUU | -0.982 ± 0.12 | 0.12 ± 0.14
AAGGAGCAAUAUUACGCACG | -1.84 ± 0.43 | -0.01 ± 0.45
GUAGAGCAAUAUUACGACGA | -1.85 ± 0.15 | -0.21 ± 0.16
UCUAAGCAAUAUUACGUCUG | -1.72 ± 0.16 | -1.18 ± 0.19
GUAUAGCAAUAUUACGCAGC | -2.32 ± 0.37 | -1.25 ± 0.33
UUACAGCAAUAUUACGGUAC | -3.98 ± 0.22 | -2.26 ± 0.14
AUACAGCAAUAUUACGUAGG | -2.13 ± 0.11 | -0.536 ± 0.12
GACAAGCAAUAUUACGCUCU | -2.38 ± 0.13 | -1.08 ± 0.12
ACCCAGCAAUAUUACGUUGA | -1.66 ± 0.073 | -1.03 ± 0.075
CCUUAGCAAUAUUACGCGCU | -3.13 ± 0.32 | -3.41 ± 0.42
UCACAGCAAUAUUACGGAAA | -3.16 ± 0.24 | -1.85 ± 0.18
UGCCAGCAAUAUUACGAGCU | -1.17 ± 0.075 | -0.631 ± 0.098
ACAGAGCAAUAUUACGUUUA | -3.01 ± 0.15 | -3.24 ± 0.23
ACAGAGCAAUAUUACGCCUG | – | -1.94 ± 0.46
UUGUAGCAAUAUUACGGAAA | -2.55 ± 0.39 | -1.2 ± 0.22
GUUGAGCAAUAUUACGUCAG | -2.67 ± 0.17 | -2.86 ± 0.31
GUGGAGCAAUAUUACGUGAG | -2.1 ± 0.19 | -2.39 ± 0.21
UGGUAGCAAUAUUACGAAAG | -3.06 ± 0.26 | –
ACCCAGCAAUAUUACGAGAU | -1.72 ± 0.061 | -0.655 ± 0.073
GUCGAGCAAUAUUACGAAUG | -4.06 ± 0.35 | -0.777 ± 0.2
UCACAGCAAUAUUACGCCCC | -0.433 ± 0.3 | -1.51 ± 0.41
AAGAAGCAAUAUUACGUGGA | -2.97 ± 0.12 | -2.44 ± 0.12

Sequence | self-splicing fitness (ln) (30 °C) | self-splicing fitness (ln) (37 °C)
UUCCAGCAAUAUUACGGCUU | -1.4 ± 0.11 | -0.36 ± 0.1
UGUCAGCAAUAUUACGGUCC | -0.381 ± 0.15 | -0.567 ± 0.19
CAUUAGCAAUAUUACGGUAG | -0.468 ± 0.062 | -0.027 ± 0.072
CUCUAGCAAUAUUACGUAUU | -2.14 ± 0.13 | -3.57 ± 0.25
UCCUAGCAAUAUUACGUUAC | -3.48 ± 0.25 | -2.09 ± 0.25
CCAGAGCAAUAUUACGAGCA | -5.29 ± 0.41 | -2.32 ± 0.19
UUGUAGCAAUAUUACGGCAA | -0.208 ± 0.12 | -0.27 ± 0.16
CAUUAGCAAUAUUACGAUGA | -2.12 ± 0.2 | -1.09 ± 0.15
GGAAAGCAAUAUUACGUUGG | -3.55 ± 0.2 | -2.83 ± 0.34
UAGCAGCAAUAUUACGGCAG | -0.659 ± 0.1 | 0.546 ± 0.13
UGUAAGCAAUAUUACGCCCA | -0.177 ± 0.18 | 0.0098 ± 0.2
AAUAAGCAAUAUUACGAACA | -0.812 ± 0.15 | -0.462 ± 0.15
AAUAAGCAAUAUUACGCUGC | -3.69 ± 0.3 | -2.67 ± 0.38
AUACAGCAAUAUUACGGCAG | -2.21 ± 0.072 | -0.564 ± 0.077
GCUUAGCAAUAUUACGAGUA | -1.37 ± 0.16 | -0.0404 ± 0.14
CCUGAGCAAUAUUACGGAAC | -2.63 ± 0.33 | -1.66 ± 0.31
GUAUAGCAAUAUUACGUCUG | -3.17 ± 0.17 | -1.08 ± 0.14
CUGGAGCAAUAUUACGCGAG | -3.24 ± 0.23 | -2.47 ± 0.26
UAGGAGCAAUAUUACGUAAA | -2.09 ± 0.16 | -1.49 ± 0.15
GGUAAGCAAUAUUACGUCAA | -1.9 ± 0.26 | -1.62 ± 0.2
GCGUAGCAAUAUUACGGUUA | -0.359 ± 0.1 | -0.119 ± 0.09
GACCAGCAAUAUUACGUGCU | -2.85 ± 0.12 | -2.63 ± 0.21
UGAAAGCAAUAUUACGCCAC | – | -2.67 ± 0.48
UAUUAGCAAUAUUACGAACG | -0.156 ± 0.12 | 0.194 ± 0.14
UAGAAGCAAUAUUACGCUGU | -3.73 ± 0.26 | -0.977 ± 0.15

Sequence | self-splicing fitness (ln) (30 °C) | self-splicing fitness (ln) (37 °C)
UCUUAGCAAUAUUACGUGGG | -3.96 ± 0.23 | -2.21 ± 0.18
UCGUAGCAAUAUUACGAUAA | -3.65 ± 0.26 | -1.72 ± 0.2
GCCCAGCAAUAUUACGCUUU | 0.177 ± 0.056 | 0.242 ± 0.074
CACAAGCAAUAUUACGGCAG | -0.587 ± 0.051 | -0.0731 ± 0.064
GCGAAGCAAUAUUACGGGAC | -1.66 ± 0.16 | -2.2 ± 0.22
GCUGAGCAAUAUUACGGGUC | -4.37 ± 0.46 | -1.36 ± 0.24
AGAUAGCAAUAUUACGGGUA | -1.35 ± 0.11 | -1.8 ± 0.14
GUUCAGCAAUAUUACGCGGA | -4.19 ± 0.42 | -2.54 ± 0.23
AACCAGCAAUAUUACGGCCG | 0.0592 ± 0.073 | -0.223 ± 0.1
GUACAGCAAUAUUACGCGCA | -1.07 ± 0.11 | -0.616 ± 0.12
UGCAAGCAAUAUUACGUCAC | -2.88 ± 0.47 | -2.27 ± 0.24
AUACAGCAAUAUUACGGACU | -0.732 ± 0.06 | 0.141 ± 0.09
UCGAAGCAAUAUUACGACAG | -3.08 ± 0.23 | -1.87 ± 0.31
UGAAAGCAAUAUUACGCAUU | -3.13 ± 0.23 | –
UAGUAGCAAUAUUACGACAG | -2.01 ± 0.3 | -1.18 ± 0.37
AACAAGCAAUAUUACGUAUC | -4.08 ± 0.15 | -2.01 ± 0.11
CUGAAGCAAUAUUACGGAAG | -1.37 ± 0.096 | -0.636 ± 0.12
CCCCAGCAAUAUUACGGUCU | -3.81 ± 0.13 | -2.73 ± 0.17
CUAGAGCAAUAUUACGUUAG | -1.27 ± 0.066 | -0.217 ± 0.096
CCCUAGCAAUAUUACGUGCU | -2.99 ± 0.17 | -2.58 ± 0.24
CUGUAGCAAUAUUACGGUAA | -3.63 ± 0.24 | -2.3 ± 0.26
UACUAGCAAUAUUACGAAUG | -0.956 ± 0.083 | 0.689 ± 0.12
ACGCAGCAAUAUUACGCUUG | -3.56 ± 0.21 | -2.55 ± 0.2
CCCAAGCAAUAUUACGGGUG | -3.36 ± 0.093 | -1.79 ± 0.077
UAUCAGCAAUAUUACGGCAG | -0.148 ± 0.075 | 0.0916 ± 0.089

Sequence | self-splicing fitness (ln) (30 °C) | self-splicing fitness (ln) (37 °C)
UAUAAGCAAUAUUACGGUGA | -1 ± 0.13 | -0.726 ± 0.13
AUACAGCAAUAUUACGGGCG | -1.25 ± 0.077 | -1.18 ± 0.11
UGUCAGCAAUAUUACGGUCU | -0.529 ± 0.063 | 0.201 ± 0.083
AAAGAGCAAUAUUACGGUUC | – | -2.82 ± 0.36
AAUUAGCAAUAUUACGAUUG | -2.58 ± 0.2 | -1.14 ± 0.22
CUAAAGCAAUAUUACGGCAA | -3.27 ± 0.18 | -1.35 ± 0.15
CACGAGCAAUAUUACGACAG | -1.71 ± 0.078 | -0.496 ± 0.095
CCACAGCAAUAUUACGUAUC | -2.59 ± 0.16 | -2 ± 0.22
UGACAGCAAUAUUACGCGAU | -2.5 ± 0.15 | -1.46 ± 0.19
CCACAGCAAUAUUACGUGUG | -3.61 ± 0.095 | -2.36 ± 0.092
GCAGAGCAAUAUUACGAACA | -3.11 ± 0.4 | –
UCUGAGCAAUAUUACGAGGA | -3.8 ± 0.4 | -3.29 ± 0.42
UGCAAGCAAUAUUACGGAUU | -2.63 ± 0.11 | -1.84 ± 0.14
AAGGAGCAAUAUUACGUACU | -0.884 ± 0.11 | -0.189 ± 0.11
UACGAGCAAUAUUACGUCAC | -2.59 ± 0.25 | -2.09 ± 0.32
AUUUAGCAAUAUUACGUCCG | -1.76 ± 0.18 | -0.728 ± 0.22
UUCAAGCAAUAUUACGGGGU | -3.57 ± 0.21 | -3.15 ± 0.25
AAAUAGCAAUAUUACGAUGC | -2.26 ± 0.31 | -1.65 ± 0.34
CCCGAGCAAUAUUACGCAAU | -3.57 ± 0.25 | -2.94 ± 0.29
CUAGAGCAAUAUUACGUAAA | -3.81 ± 0.24 | -1.84 ± 0.25
ACAGAGCAAUAUUACGUUCC | -2.89 ± 0.32 | -1.81 ± 0.34
CACAAGCAAUAUUACGCGAU | -3.57 ± 0.15 | -3.18 ± 0.19
